# Source: the supplement of paper PMC10567573
# B1: SNAP91 (parent)
# chain: FSTDAFSSPPQGASPVPESSLTAD
# B2: CAMK2A (parent)
# chain: ILLVGYPPFWDEDQHRLYKQIKAG
# Variants of: B1
# Test: protein stability index of a GFP-peptide fusion (GPS, HEK-293T) (PSI 1-6); higher = more stable
# Conditions: c terminus: a fixed tail appended
# 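Also: lentivirally expressed fusions sorted by FACS into six bins by GFP to DsRed ratio, PSI derived from sequencing read proportions per bin multiplied by bin number.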
row,Variant,protein stability index
1,P9C,2.61
2,P9R,2.91
3,P9A,2.52
4,P9L,2.65
5,P9W,2.24
6,P9D,3.96
7,P9N,3.13
8,P9S,3.74
9,P9V,2.74
10,P9E,4.35
11,P9H,2.89
12,P9M,2.16
13,P9T,2.85
14,P9Q,3.02
15,P9K,2.92
16,P9I,2.43
17,P9Y,2.45
18,P9F,2.46
19,P9G,2.76
20,L21C,3.38
21,L21Y,2.81
22,L21E,4.1
23,L21K,3.12
24,L21I,3.01
25,L21F,3.1
26,L21P,3.33

row,Variant,protein stability index
1,L21M,3.11
2,L21R,3.11
3,L21A,3.44
4,L21T,3.45
5,L21V,3.39
6,L21Q,3.53
7,L21H,3.47
8,L21N,3.39
9,L21D,3.86
10,L21S,3.58
11,L21W,2.92
12,L21G,3.14
13,Q11E,3.9
14,Q11I,3.25
15,Q11P,3.27
16,Q11S,4.17
17,Q11A,3.33
18,Q11C,2.56
19,Q11F,2.68
20,Q11N,3.13
21,Q11Y,2.22
22,Q11D,4.01
23,Q11V,2.88
24,Q11K,2.68
25,Q11W,2.2
26,Q11L,2.74

row,Variant,protein stability index
1,Q11R,3.06
2,Q11H,3.43
3,Q11T,3.75
4,Q11M,2.69
5,Q11G,3.34
6,D24L,3.07
7,D24W,1.87
8,D24H,2.42
9,D24V,2.18
10,D24M,3.19
11,D24I,2.92
12,D24C,2.83
13,D24N,2.62
14,D24R,3.49
15,D24Y,2.25
16,D24E,3.02
17,D24S,2.78
18,D24Q,3.01
19,D24A,3.03
20,D24G,2.75
21,D24F,2.12
22,D24T,2.89
23,D24K,3.18
24,P15K,2.43
25,P15Y,2.44
26,P15R,2.97

row,Variant,protein stability index
1,P15M,2.72
2,P15F,2.57
3,P15L,2.64
4,P15A,3.25
5,P15W,2.37
6,P15E,3.6
7,P15D,3.27
8,P15Q,3.17
9,P15G,2.83
10,P15T,3.17
11,P15H,3.5
12,P15I,2.67
13,P15S,3.03
14,P15N,3.12
15,P15V,3.05
16,P15C,2.78
17,T22Y,3.21
18,T22I,3.21
19,T22W,2.28
20,T22R,2.93
21,T22A,2.92
22,T22S,3.63
23,T22M,3.31
24,T22E,3.86
25,T22V,3.41
26,T22C,3.3

row,Variant,protein stability index
1,T22Q,3.36
2,T22K,2.64
3,T22D,3.46
4,T22G,3.3
5,T22H,3.09
6,T22P,2.83
7,T22F,2.96
8,T22N,3.09
9,T22L,3.63
10,A13T,3.47
11,A13E,3.22
12,A13F,2.54
13,A13I,2.52
14,A13L,2.82
15,A13P,2.72
16,A13D,3.45
17,A13W,2.72
18,A13R,2.77
19,A13C,2.69
20,A13Q,3.11
21,A13K,2.47
22,A13N,3.51
23,A13S,3.54
24,A13V,2.75
25,A13Y,2.85
26,A13G,2.99

row,Variant,protein stability index
1,A13H,3.16
2,A13M,2.93
3,S14E,3.27
4,S14D,3.62
5,S14C,3
6,S14T,3.29
7,S14H,3.06
8,S14I,2.89
9,S14N,3
10,S14Q,2.75
11,S14V,2.63
12,S14W,2.69
13,S14R,2.88
14,S14F,2.54
15,S14M,2.95
16,S14Y,2.84
17,S14A,3.57
18,S14L,3.22
19,S14K,2.9
20,S14G,3.3
21,V16I,3.29
22,V16G,3.66
23,V16S,2.96
24,V16F,2.7
25,V16D,3.12
26,V16Y,2.96

row,Variant,protein stability index
1,V16H,3.17
2,V16M,2.68
3,V16R,3.22
4,V16N,3.31
5,V16Q,3.33
6,V16L,2.83
7,V16C,2.67
8,V16A,3.6
9,V16E,4
10,V16K,2.96
11,V16W,2.21
12,V16T,2.96
13,S19C,3.19
14,S19T,3.54
15,S19M,2.66
16,S19W,2.76
17,S19G,2.46
18,S19R,2.55
19,S19Q,3.1
20,S19A,3.08
21,S19D,3.6
22,S19I,2.91
23,S19L,2.79
24,S19K,2.23
25,S19V,2.85
26,S19P,3.09

row,Variant,protein stability index
1,S19Y,3.25
2,S19E,3.19
3,S19N,3.44
4,S19H,3.13
5,S19F,2.58
6,S20A,3.56
7,S20L,2.72
8,S20W,2.52
9,S20H,3.04
10,S20E,3.49
11,S20P,2.46
12,S20V,2.77
13,S20K,3.09
14,S20Q,3.04
15,S20G,3.04
16,S20R,3.13
17,S20C,3.18
18,S20I,2.81
19,S20T,3.47
20,S20M,2.98
21,S20N,3.38
22,S20Y,2.93
23,S20F,2.68
24,S20D,3.48
25,S8P,4
26,S8Q,2.86

row,Variant,protein stability index
1,S8C,2.75
2,S8L,3.29
3,S8D,4.93
4,S8Y,3.39
5,S8A,3.31
6,S8F,3.22
7,S8I,2.62
8,S8V,3.16
9,S8W,3.44
10,S8R,2.87
11,S8M,3.02
12,S8T,3.33
13,S8E,4.58
14,S8K,2.38
15,S8N,2.75
16,S8H,2.75
17,S8G,3.67
18,E18H,2.69
19,E18Y,2.74
20,E18G,3.05
21,E18M,2.83
22,E18P,2.78
23,E18N,2.61
24,E18F,2.45
25,E18T,2.81
26,E18V,3.05

row,Variant,protein stability index
1,E18W,2.26
2,E18A,3.22
3,E18L,2.42
4,E18K,2.51
5,E18R,2.65
6,E18C,2.43
7,E18Q,3.12
8,E18S,3.19
9,E18D,3.15
10,E18I,2.63
11,P10W,1.72
12,P10E,3.23
13,P10F,2.28
14,P10L,3.38
15,P10H,2.29
16,P10A,3.09
17,P10V,2.73
18,P10D,3.61
19,P10T,2.73
20,P10C,2.8
21,P10S,2.71
22,P10G,2.69
23,P10Y,2.18
24,P10I,2.42
25,P10R,2.55
26,P10N,2.64

row,Variant,protein stability index
1,P10K,3.16
2,P10Q,3.24
3,P10M,2.29
4,S7K,2.96
5,S7W,3.15
6,S7T,3.33
7,S7Y,2.9
8,S7L,2.96
9,S7P,3.56
10,S7N,4.22
11,S7Q,3.77
12,S7M,2.84
13,S7R,1.62
14,S7V,2.32
15,A23C,2.23
16,A23P,2.8
17,A23L,3.23
18,A23K,3.49
19,A23R,2.96
20,A23F,3.01
21,A23V,2.96
22,A23M,2.97
23,A23Q,3.91
24,A23E,3.35
25,A23I,3.08
26,A23H,2.85

row,Variant,protein stability index
1,A23D,3.36
2,A23T,3.35
3,A23N,3.5
4,A23G,3.09
5,A23S,2.94
6,A23W,2.65
7,G12S,2.79
8,G12N,3.08
9,G12L,2.75
10,G12H,2.63
11,G12M,2.58
12,G12V,2.92
13,G12F,2.6
14,G12E,3.58
15,G12T,3.5
16,G12Y,2.44
17,G12K,2.73
18,G12D,3.52
19,G12W,2.32
20,G12I,2.68
21,G12R,3.11
22,G12C,2.62
23,G12Q,3.35
24,G12A,3.39
25,G12P,2.93
26,P17Y,2.69

row,Variant,protein stability index
1,P17L,3.23
2,P17E,3.89
3,P17I,3.04
4,P17T,2.83
5,P17R,3.31
6,P17D,4.14
7,P17H,3.85
8,P17F,2.86
9,P17S,3.86
10,P17M,3.13
11,P17G,3.66
12,P17Q,3.21
13,P17K,2.9
14,P17A,3.79
15,P17W,2.41
16,P17N,3.52
17,P17V,3.25
18,P17C,3.01

# Variants of: B2
# Test: as above
# Conditions: c terminus: a fixed tail appended
row,Variant,protein stability index
1,I1A,2.25
2,I1D,2.1
3,I1C,2.39
4,I1E,2.96
